The text below walks through data of doi:10.1101/2024.10.26.620377 (bioRxiv, 2024).

For test [1], the target named is GPR52 H8-A mutant, receptor-RLuc8 (human) (UniProt Q9Y2T5). The test is described as follows: FRET or BRET. (In general: In BRET a luciferase serves as donor, and the signal depends on an acceptor being close.)
Test [2] has the same target.
Test [3] has as its target T1, GPR52 (wild-type), receptor-RLuc8 BRET biosensor (human, UniProt Q9Y2T5 1-361). The test is described as follows: FRET or BRET.
Test [4] concerns the target T1, GPR52 (wild-type), receptor-RLuc8 BRET …. Briefly: FRET or BRET. This is another data set of the same source.

“β-arrestin2-GFP2 (from UniProt P32121 1-409) (natural protein)”: the % Emax of BRET, unliganded, relative to wild-type in test [1] came to 451 % Emax. In test [2], the Tango assay, constitutive β-arrestin2 recruitment, % Emax relative to wild-type amounted to 300 % Emax.

B1: β-arrestin1-GFP2 (natural protein)
chain: MGDKGTRVFKKASPNGKLTVYLGKRDFVDHIDLVDPVDGVVLVDPEYLKERRVYVTLTCAFRYGREDLDVLGLTFRKDLFVANVQSFPPAPEDKKPLTRLQERLIKKLGEHAYPFTFEIPPNLPCSVTLQPGPEDTGKACGVDYEVKAFCAENLEEKIHKRNSVRLVIRKVQYAPERPGPQPTAETTRQFLMSDKPLHLEASLDKEIYYHGEPISVNVHVTNNTNKTVKKIKISVRQYADICLFNTAQYKCPVAMEEADDTVAPSSTFCKVYTLTPFLANNREKRGLALDGKLKHEDTNLASSTLLREGANREILGIIVSYKVKVKLVVSRGGLLGDLASSDVAVELPFTLMHPKPKEEPPHREVPENETPVDTNLIELDTNDDDIVFEDFARQRLKGMKDDKEEEEDGTGSPQLNNR
Molecule B1 returned a % Emax of BRET, agonist-induced, relative to wild-type in test [1] of 470 % Emax. Further, the “% Emax of BRET, unliganded, relative to the GLP-1R full response” value in test [3] turned out to be 5.1 % Emax. In test [4], the “% Emax of BRET, agonist-induced, relative to the GLP-1R full response” value amounted to 19.5 % Emax.
